The source of these data is patent publication US20240043529A1, “METHODS AND COMPOSITIONS RELATED TO BCL2 AND BIM HETERODIMER ANTIBODIES” (Eutropics Pharmaceuticals, Inc., priority 2020, published 2024).

Data set [1] has as its target T1, GST_Bc1xL (Bc1xL monomer) (human, UniProt Q07817 1-209).
T1 construct: also called BclxL monomer; not shown: GST (glutathione S-transferase) fused at the N-terminus
In words: ELISA, serially diluted hybridoma supernatant on glutathione plates. The procedure:
(§1) This class of heterodimer specific Bc12:Bim reactive monoclonal antibodies are otherwise known as “HSB2B”. […] As controls, reactivity with Bc1xL:Bim, Bc12 and Bc1xL monomers, and bovine serum albumin (BSA) were also screened against. To adhere the Bc1xL and Bc12 to the plates, each was expressed as a recombinant fusion protein with GST at the N-terminus (i.e. GST_Bc12 and GST_Bc1xL). Once adhered to the plate, incubations were either performed with a Bim peptide (which fits into the BH3-binding pocket of Bc12 family members), or PBS (thus retaining the monomeric confirmation). Hybridomas supernatants were subsequently incubated with the coated antigens and detected with HRP conjugated anti-mouse IgG. The reaction was developed with TMB substrate and stopped with sulphuric acid. Gluathione plate wells were scanned using a wavelength filter with an optical density of 450 nanometres (OD₄₅₀).

Data set [2] concerns the target T2, bovine serum albumin (BSA) (bovine, UniProt P02769 25-607).
T2 construct: Control antigen
The data set is described as above. The procedure:
as §1

For the next data set, the target named is Bc12:BIM heterodimer (Homo sapiens, UniProt P10415). In words: ELISA reactivity with different Bc12 and Bc1_XL heterodimers. The data set is classed as binding. Conditions: FIG. 8. From the text: (§2) All levels of reactivity are tabulated as percentage magnitudes of signal relative to those yielded with the Bc12:BIM heterodimer. […] 28A9 has low ABT199 cross-reactivity.
Sequence of Bc12:BIM heterodimer (P10415 whole entry): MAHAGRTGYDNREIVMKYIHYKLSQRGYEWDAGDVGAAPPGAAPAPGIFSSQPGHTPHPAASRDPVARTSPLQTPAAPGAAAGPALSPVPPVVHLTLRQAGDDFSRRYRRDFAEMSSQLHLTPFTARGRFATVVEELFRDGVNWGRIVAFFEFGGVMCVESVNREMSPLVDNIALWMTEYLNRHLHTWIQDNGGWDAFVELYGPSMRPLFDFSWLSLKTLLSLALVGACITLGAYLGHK
Sequence of Bc12:BIM heterodimer (O43521 whole entry partner): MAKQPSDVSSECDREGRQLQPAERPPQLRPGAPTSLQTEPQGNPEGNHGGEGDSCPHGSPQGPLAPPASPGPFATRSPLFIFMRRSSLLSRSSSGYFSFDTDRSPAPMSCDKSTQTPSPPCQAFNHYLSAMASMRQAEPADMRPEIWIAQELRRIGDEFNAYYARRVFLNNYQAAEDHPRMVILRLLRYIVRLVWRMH
For orientation: An ELISA detects its analyte on a solid surface through an enzyme-linked reagent.

The target of data set [3] is ABT199 in a heterodimer with Bc12 (Homo sapiens, UniProt P10415). The data set is described as above. The data set is classed as binding. The note with it: FIG. 8; signal relative to Bc12:BIM heterodimer.
Sequence of ABT199 in a heterodimer with Bc12 (P10415 whole entry, one chain of several): as the sequence (P10415 whole entry) above
Text: as §2

Data set [4] concerns the target Bc12:Bim heterodimeric complex (Homo sapiens, UniProt P10415). Briefly: ELISA of hybridoma supernatants on glutathione plates coated with GST_Bc12 complexed with Bim peptide. The class given is binding. Conditions: for antigen reactivity of hybridoma supernatants (OD450): FIG. 1, serially diluted supernatants, controls Bc1xL:Bim, Bc12 and Bc1xL monomers, BSA; for hybridoma supernatant reactivity among a more exhaustive range of antigens: FIG. 2, antigens include Mcl1 monomer and Mc11:Bim heterodimeric forms. Here is the method: This class of heterodimer specific Bc12:Bim reactive monoclonal antibodies are otherwise known as “HSB2B”. […] As controls, reactivity with Bc1xL:Bim, Bc12 and Bc1xL monomers, and bovine serum albumin (BSA) were also screened against. To adhere the Bc1xL and Bc12 to the plates, each was expressed as a recombinant fusion protein with GST at the N-terminus (i.e. GST_Bc12 and GST_Bc1xL). Once adhered to the plate, incubations were either performed with a Bim peptide (which fits into the BH3-binding pocket of Bc12 family members), or PBS (thus retaining the monomeric confirmation). Hybridomas supernatants were subsequently incubated with the coated antigens and detected with HRP conjugated anti-mouse IgG. The reaction was developed with TMB substrate and stopped with sulphuric acid. Gluathione plate wells were scanned using a wavelength filter with an optical density of 450 nanometres (OD450).
As a GST fusion protein (GST_Mc11), HSB2B hybridoma supernatant reactivity was tested against the Mc11 monomeric form, or the heterodimeric forms (created by, either, incubation of Bim peptide (as for FIG. 1), or by covalently linking the Bim peptide to the GST_Mc11). As for FIG. 1, the HSB2B mAbs show specific reactivity with the epitopes induced following the complexing of Bc12 with Bim.

A further data set has as its target T3, GST_Bc12 (Bc12 monomer) (human, UniProt P10415 1-218, limits assumed).
T3 construct: also called Bcl2 monomer; not shown: GST (glutathione S-transferase) fused at the N-terminus
Briefly: ELISA, serially diluted hybridoma supernatant on glutathione plates. Here is the method:
as §1

Data set [5] deals with small cell lung cancer tissue. Briefly: IHC on FFPE small cell lung cancer tissue. Conditions: for cytoplasmic staining level (Mean Cytoplasmic OD) of tumor cells versus negative control: FIG. 4 (ii), four biopsy areas; for cytoplasmic staining level (Mean Cytoplasmic OD) of tumor cells versus negative control / cytoplasmic staining level of individual cells versus negative control: Mann Whitney ****p<0.001; for reactivity by IHC with small cell lung cancer tissue: FIG. 4, FFPE secondary (colon) tumor biopsy, anti-mouse IgG HRP, DAB; for cytoplasmic staining level of individual cells versus negative control: FIG. 5 (ii), three biopsy areas combined. From the text: Serial sections of a FFPE secondary (colon) tumor biopsy were stained with the HSB2B clones or, as a negative control, no primary antibody (“neg control”). Antibody binding was detected with anti-mouse IgG HRP and developed using a DAB substrate to yield a brown stain. Nuclei were counterstained blue with Hematoxylin. Four corresponding biopsy areas (A-D) were imaged per biopsy for analysis. FIG. 4 (i) is a panel of images showing the magnitude of staining with each HSB2B mAb for one of the four biopsy areas acquired for each stained biopsy. […] Cellular architecture (middle row) was then defined using HALO image analysis software (left hand color key, TIL=tumor infiltrating lymphocytes), most importantly to define the location of the tumor cells. […] (ii) Dot plot/bar chart showing the cytoplasmic staining levels (Mean Cytoplasmic OD) for each of the tumor cells for the four different biopsy areas. The dots represent cytoplasmic staining intensities for individual cells. Medians and interquartile ranges are plotted. (Mann Whitney) statistical comparisons of staining intensity were performed between cells from HSB2B stained tissue and negative (neg) control tissue for each of the four areas of biopsy. ****p<0.001.
The present anti-BC12/BIM antibodies are labelled “HSB2B” and a clone number (see Table A); “HSBXB” is an antibody against Bc1-x1/Bim and “HSMCB” is an antibody against MCL-1/BIM. […] FIG. 5 (ii) is cytoplasmic staining levels of individual cells from three different biopsy areas were combined and plotted as dot/bar graphs. The dots represent cytoplasmic staining intensities for individual cells. Medians and interquartile ranges are plotted. (Mann Whitney) statistical comparisons of staining intensity were performed between cells from HSA stained tissue and negative (neg) control tissue. **** p<0.001. […] The acquisition of data following staining with different HSA classes is planned to be of clinical utility to determine the relative dependencies of different cancers on different Bc12 family members.

The next data set addresses Bc12:BAX heterodimers (Homo sapiens, UniProt P10415). In words: ELISA reactivity with different Bc12 and Bc1_XL heterodimers. The data set is classed as binding. The note with it: FIG. 8; signal relative to Bc12:BIM heterodimer.
Text: as §2

A further data set concerns breast cancer tissue. In words: IHC on FFPE breast cancer tissue. Conditions: FIG. 6; biopsies of two breast cancer patients; three biopsy areas combined. From the text:
The present anti-BC12/BINI antibodies are labelled “HSB2B” and a clone number (see Table A); “HSBXB” is an antibody against Bc1-x1/Bim and “HSMCB” is an antibody against MCL-1/BIM. Using an analogous staining method to that described in FIG. 5, serial sections of two different patients' breast cancer biopsies (“Breast Cancer Patient 1 & 2”) were stained at the same time, under the identical conditions for relative reactivity with HSB2B mAbs 2H3 and 10C10, HSMCB and HSBXB. Cytoplasmic staining levels of individual cells from three different biopsy areas for each patient biopsy were combined and plotted as dot/bar graphs. […] The acquisition of data following staining with different HSA classes is planned to be of clinical utility to determine the relative dependencies of different cancers on different Bc12 family members.

T1 sequence (Q07817 1-209): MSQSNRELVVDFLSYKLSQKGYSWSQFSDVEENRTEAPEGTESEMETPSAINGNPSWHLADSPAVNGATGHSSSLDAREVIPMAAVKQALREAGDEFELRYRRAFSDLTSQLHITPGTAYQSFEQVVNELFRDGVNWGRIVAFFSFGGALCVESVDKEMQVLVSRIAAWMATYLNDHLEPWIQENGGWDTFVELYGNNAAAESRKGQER
Sequence of Bc12:Bim heterodimeric complex (P10415 whole entry, the tested form may be a part): as the sequence (P10415 whole entry) above
Sequence of Bc12:Bim heterodimeric complex (O43521 142-161 partner limits assumed): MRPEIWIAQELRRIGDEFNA
T2 sequence (P02769 25-607 limits assumed): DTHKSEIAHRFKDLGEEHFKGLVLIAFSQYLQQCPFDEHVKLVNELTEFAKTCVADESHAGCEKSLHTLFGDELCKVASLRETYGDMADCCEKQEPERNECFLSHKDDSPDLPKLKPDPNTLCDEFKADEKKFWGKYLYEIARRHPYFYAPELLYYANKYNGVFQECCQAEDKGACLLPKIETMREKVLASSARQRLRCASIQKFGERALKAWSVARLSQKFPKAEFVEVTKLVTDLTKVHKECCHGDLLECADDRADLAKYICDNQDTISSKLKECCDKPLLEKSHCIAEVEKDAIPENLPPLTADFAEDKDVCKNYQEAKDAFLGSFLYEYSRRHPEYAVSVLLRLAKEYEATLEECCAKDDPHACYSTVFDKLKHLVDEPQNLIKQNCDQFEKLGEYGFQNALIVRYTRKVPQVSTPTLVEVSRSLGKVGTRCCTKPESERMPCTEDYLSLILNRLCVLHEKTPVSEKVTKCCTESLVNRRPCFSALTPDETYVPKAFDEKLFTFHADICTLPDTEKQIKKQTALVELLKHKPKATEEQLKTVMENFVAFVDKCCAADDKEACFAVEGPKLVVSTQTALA
Sequence of Bc12:BAX heterodimers (P10415 whole entry): as the sequence (P10415 whole entry) above
Sequence of Bc12:BAX heterodimers (Q07812 whole entry partner): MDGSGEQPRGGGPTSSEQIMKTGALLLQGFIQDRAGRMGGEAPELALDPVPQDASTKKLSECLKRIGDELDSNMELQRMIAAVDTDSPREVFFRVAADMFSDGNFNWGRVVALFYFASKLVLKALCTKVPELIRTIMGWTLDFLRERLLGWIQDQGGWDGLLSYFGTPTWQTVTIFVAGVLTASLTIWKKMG
T3 sequence (P10415 1-218 limits assumed): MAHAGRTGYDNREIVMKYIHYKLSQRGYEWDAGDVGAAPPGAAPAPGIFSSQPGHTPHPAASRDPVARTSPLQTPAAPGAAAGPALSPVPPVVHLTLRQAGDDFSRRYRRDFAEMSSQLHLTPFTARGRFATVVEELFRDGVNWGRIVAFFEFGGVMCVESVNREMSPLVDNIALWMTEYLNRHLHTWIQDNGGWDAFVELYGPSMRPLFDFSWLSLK

B1: HSB2B clone 28A9D11 (antibody, V domains shown)
VH: DVQLQESGPGLVKPSQSLSLTCSVTGYSITSGYYWNWIRQFPGNKLEWMGYISYDGSNNYNPSLKNRISITRDTSKNQFFLKLNSVTTEDTATYYCARDGTTVVATLAYWGQGTLVTVSA
VL: QIVLTQSPAIMSASPGEKVTISCSASSSVSYMYWYQQKPGSSPKPWIYRTSNLASGVPARFSGSGSGTSYSLTISSMEAEDAATYYCQQYHSYPPTFGAGTKLELK
notes: Mouse IgG, tested as hybridoma supernatant
For B1, the binding result in data set [1] and in data set [2] was “no binding” throughout.

B2: 28A9: mouse IgG monoclonal antibody specific for the Bc12:Bim heterodimer; Hv SEQ ID NO: 17, Lv SEQ ID NO: 21 (antibody, V domains shown)
VH: DVQLQESGPGLVKPSQSLSLTCSVTGYSITSGYYWNWIRQFPGNKLEWMGYISYDGSNNYNPSLKNRISITRDTSKNQFFLKLNSVTTEDTATYYCARDGTTVVATLAYWGQGTLVTVSA
VL: QIVLTQSPAIMSASPGEKVTISCSASSSVSYMYWYQQKPGSSPKPWIYRTSNLASGVPARFSGSGSGTSYSLTISSMEAEDAATYYCQQYHSYPPTFGAGTKLELK
On to B2, for which the “physiological heterodimer reactivity (selectivity)” value with Bc12:BIM heterodimer is reported as “restricted to Bc12:BIM”. Moreover, in [3], the ABT199 cross-reactivity result was “low”. The “antigen reactivity of hybridoma supernatants (OD450)” value (from here on “antigen reactivity”) in data set [4] was “specific for the Bc12:Bim heterodimeric complex”.

B3: HSB2B clone 10C10F7 (antibody, V domains shown)
VH: QVQLQQPGAELVKPGASVKLSCKASGYTFTSYWMHWVKQRPGRGLEWIGRIDPNSGGTKSNEKFNNKATLTVDKSSSTAYMQLSSLTSEDSAVYYCARWWDYDYFDYWGQGTTLTVSS
VL: DIVMTQSPSSLTVTAGEKVTMSCKSSQSLLNSGNQKNYLTWYQQKPGQPPKLLIYWASTRESGVPDRFTGSGSGTDFTLTISNVQAEDLAVYYCQNDYNYPLTFGAGTKLELK
notes: Mouse IgG, tested as hybridoma supernatant; also called HSB2B mAb 10C10
As for B3, the binding result (in data set [1]; in the data set with GST_Bc12 (Bc12 monomer); in [2]) was “no binding” throughout.

B4: 10C10: mouse IgG monoclonal antibody specific for the Bc12:Bim heterodimer; Hv SEQ ID NO: 1, Lv SEQ ID NO: 5 (antibody, V domains shown)
VH: QVQLQQPGAELVKPGASVKLSCKASGYTFTSYWMHWVKQRPGRGLEWIGRIDPNSGGTKSNEKFNNKATLTVDKSSSTAYMQLSSLTSEDSAVYYCARWWDYDYFDYWGQGTTLTVSS
VL: DIVMTQSPSSLTVTAGEKVTMSCKSSQSLLNSGNQKNYLTWYQQKPGQPPKLLIYWASTRESGVPDRFTGSGSGTDFTLTISNVQAEDLAVYYCQNDYNYPLTFGAGTKLELK
With B4, in data set [5], the “cytoplasmic staining level (Mean Cytoplasmic OD) of tumor cells versus negative control” value is “higher level of cytoplasmic stain”, the “reactivity by IHC with small cell lung cancer tissue” value is given as “can react with small cell lung cancer tissue” and the “cytoplasmic staining level of individual cells versus negative control” value was “higher level of staining”. Moreover, the “cross-reactivity with Bc12:BAX heterodimer” value with Bc12:BAX heterodimers is “cross-reactivity between Bc12:BIM and Bc12:BAX heterodimers”. Further, in the data set on breast cancer tissue, the “cytoplasmic staining level of individual cells versus negative control” value was “higher level of staining”. In data set [4], the “antigen reactivity” value was “specific for the Bc12:Bim heterodimeric complex” and the “hybridoma supernatant reactivity among a more exhaustive range of antigens” value was “specific reactivity for the Bc12:Bim complex”.

B5: 2H3: mouse IgG monoclonal antibody specific for the Bc12:Bim heterodimer; Hv SEQ ID NO: 25, Lv SEQ ID NO: 29 (antibody, V domains shown)
VH: QVQLQQPGAELVKPGTSVKLSCQASGYTFASYWMHWVKQRPGRGLEWIGRIDPNSGGTKYNEKFKSKVTLTVDKPSSAAYMQLSSLTSEDSAVYYCARWWDYDYFDYWGQGTTLTVSS
VL: DIVMTQSPSSLTVTAGEKVTMSCKSSQSLLNSGNQKRYLTWYQQKPGQPPKLLIYWASTRESGVPDRFTGSGSGTDFTLTISSVQAEDLAVYYCQNDYNYPLTFGSGTKLELK
Regarding B5, in data set [5], the “cytoplasmic staining level (Mean Cytoplasmic OD) of tumor cells versus negative control” value is “higher level of cytoplasmic stain”, the “reactivity by IHC with small cell lung cancer tissue” value is on record as “can react with small cell lung cancer tissue” and the “cytoplasmic staining level of individual cells versus negative control” value is reported as “higher level of staining”. Further, the “cross-reactivity with Bc12:BAX heterodimer” value with Bc12:BAX heterodimers is “cross-reactivity between Bc12:BIM and Bc12:BAX heterodimers”. Besides, the “cytoplasmic staining level of individual cells versus negative control” value with breast cancer tissue is “higher level of staining”. Further, in data set [4], the “antigen reactivity” value is “specific for the Bc12:Bim heterodimeric complex” and the “hybridoma supernatant reactivity among a more exhaustive range of antigens” value was “specific reactivity for the Bc12:Bim complex”.

B6: HSB2B clone 2H3G7 (antibody, V domains shown)
VH: QVQLQQPGAELVKPGTSVKLSCQASGYTFASYWMHWVKQRPGRGLEWIGRIDPNSGGTKYNEKFKSKVTLTVDKPSSAAYMQLSSLTSEDSAVYYCARWWDYDYFDYWGQGTTLTVSS
VL: DIVMTQSPSSLTVTAGEKVTMSCKSSQSLLNSGNQKRYLTWYQQKPGQPPKLLIYWASTRESGVPDRFTGSGSGTDFTLTISSVQAEDLAVYYCQNDYNYPLTFGSGTKLELK
notes: Mouse IgG, tested as hybridoma supernatant; also called HSB2B mAb 2H3
In the case of B6, the binding result (in data set [1]; with GST_Bc12 (Bc12 monomer); in data set [2]) was “no binding” in each case.
